target: T1, CD3 epsilon homodimer protein (UniProt P07766 23-126); assay: SPR, antibody over immobilised CD3e homodimer;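 note: SPR at 25 °C with CD3 epsilon homodimer amine-coupled to a CM4 sensor chip and antibody flowed over as analyte in HBS-EP+ running buffer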
T1 construct: also called CD3 (CD3 epsilon)
T1 sequence (P07766 23-126): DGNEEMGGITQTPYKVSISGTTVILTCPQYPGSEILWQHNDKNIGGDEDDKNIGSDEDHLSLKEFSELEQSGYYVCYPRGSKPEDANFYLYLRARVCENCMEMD
Procedure: An appropriate amount of CD3 epsilon homodimer protein was immobilized onto Sensor chip CM4 (GE Healthcare Japan Corp.) by the amine coupling method. Then, the antibody having an appropriate concentration was injected thereto as an analyte and allowed to interact with the CD3 epsilon homodimer protein on the sensor chip. Then, the sensor chip was regenerated by the injection of 10 mmol/L glycine-HCl (pH 1.5). The assay was conducted at 25 degrees C., and HBS-EP+(GE Healthcare Japan Corp.) was used as a running buffer. […] Each parameter was calculated using Biacore T200 Evaluation Software (GE Healthcare Japan Corp.).

Binder	KD ratio to GLS3000
CE115HA000/GLS3000 N28G (antibody, IgG1, name in Kabat numbering, V domains shown, one-arm IgG1) VH: QVQLVESGGGVVQPGRSLRLSCAASGFTFSNAWMHWVRQAPGKGLEWVAQIKAKSNNYATYYAESVKGRFTISRDDSKNSLYLQMNSLKTEDTAVYYCRYVHYGAYYGVDAWGQGTTVTVSS VL: DIVMTQSPLSLPVTPGEPASISCRSSQSLVHSGRNTYLHWYQQKPGQAPRLLIYKVSNRFSGVPDRFSGSGSGTDFTLKISRVEAEDVGVYYCGQGTQVPYTFGQGTKLEIK	2.41
CE115HA000/GLS3000 N28T (antibody, IgG1, name in Kabat numbering, V domains shown, one-arm IgG1) VH: QVQLVESGGGVVQPGRSLRLSCAASGFTFSNAWMHWVRQAPGKGLEWVAQIKAKSNNYATYYAESVKGRFTISRDDSKNSLYLQMNSLKTEDTAVYYCRYVHYGAYYGVDAWGQGTTVTVSS VL: DIVMTQSPLSLPVTPGEPASISCRSSQSLVHSTRNTYLHWYQQKPGQAPRLLIYKVSNRFSGVPDRFSGSGSGTDFTLKISRVEAEDVGVYYCGQGTQVPYTFGQGTKLEIK	2.67
CE115HA000/GLS3000 N28H (antibody, IgG1, name in Kabat numbering, V domains shown, one-arm IgG1) VH: QVQLVESGGGVVQPGRSLRLSCAASGFTFSNAWMHWVRQAPGKGLEWVAQIKAKSNNYATYYAESVKGRFTISRDDSKNSLYLQMNSLKTEDTAVYYCRYVHYGAYYGVDAWGQGTTVTVSS VL: DIVMTQSPLSLPVTPGEPASISCRSSQSLVHSHRNTYLHWYQQKPGQAPRLLIYKVSNRFSGVPDRFSGSGSGTDFTLKISRVEAEDVGVYYCGQGTQVPYTFGQGTKLEIK	3
CE115HA000/GLS3000 N28Q (antibody, IgG1, name in Kabat numbering, V domains shown, one-arm IgG1) VH: QVQLVESGGGVVQPGRSLRLSCAASGFTFSNAWMHWVRQAPGKGLEWVAQIKAKSNNYATYYAESVKGRFTISRDDSKNSLYLQMNSLKTEDTAVYYCRYVHYGAYYGVDAWGQGTTVTVSS VL: DIVMTQSPLSLPVTPGEPASISCRSSQSLVHSQRNTYLHWYQQKPGQAPRLLIYKVSNRFSGVPDRFSGSGSGTDFTLKISRVEAEDVGVYYCGQGTQVPYTFGQGTKLEIK	3.48
CE115HA000/GLS3000 N28S (antibody, IgG1, name in Kabat numbering, V domains shown, one-arm IgG1) VH: QVQLVESGGGVVQPGRSLRLSCAASGFTFSNAWMHWVRQAPGKGLEWVAQIKAKSNNYATYYAESVKGRFTISRDDSKNSLYLQMNSLKTEDTAVYYCRYVHYGAYYGVDAWGQGTTVTVSS VL: DIVMTQSPLSLPVTPGEPASISCRSSQSLVHSSRNTYLHWYQQKPGQAPRLLIYKVSNRFSGVPDRFSGSGSGTDFTLKISRVEAEDVGVYYCGQGTQVPYTFGQGTKLEIK	4.3
CE115HA000/GLS3000 N28L (antibody, IgG1, name in Kabat numbering, V domains shown, one-arm IgG1) VH: QVQLVESGGGVVQPGRSLRLSCAASGFTFSNAWMHWVRQAPGKGLEWVAQIKAKSNNYATYYAESVKGRFTISRDDSKNSLYLQMNSLKTEDTAVYYCRYVHYGAYYGVDAWGQGTTVTVSS VL: DIVMTQSPLSLPVTPGEPASISCRSSQSLVHSLRNTYLHWYQQKPGQAPRLLIYKVSNRFSGVPDRFSGSGSGTDFTLKISRVEAEDVGVYYCGQGTQVPYTFGQGTKLEIK	3.34
CE115HA000/GLS3000 N28P (antibody, IgG1, name in Kabat numbering, V domains shown, one-arm IgG1) VH: QVQLVESGGGVVQPGRSLRLSCAASGFTFSNAWMHWVRQAPGKGLEWVAQIKAKSNNYATYYAESVKGRFTISRDDSKNSLYLQMNSLKTEDTAVYYCRYVHYGAYYGVDAWGQGTTVTVSS VL: DIVMTQSPLSLPVTPGEPASISCRSSQSLVHSPRNTYLHWYQQKPGQAPRLLIYKVSNRFSGVPDRFSGSGSGTDFTLKISRVEAEDVGVYYCGQGTQVPYTFGQGTKLEIK	4.18
CE115HA000/GLS3000 N28I (antibody, IgG1, name in Kabat numbering, V domains shown, one-arm IgG1) VH: QVQLVESGGGVVQPGRSLRLSCAASGFTFSNAWMHWVRQAPGKGLEWVAQIKAKSNNYATYYAESVKGRFTISRDDSKNSLYLQMNSLKTEDTAVYYCRYVHYGAYYGVDAWGQGTTVTVSS VL: DIVMTQSPLSLPVTPGEPASISCRSSQSLVHSIRNTYLHWYQQKPGQAPRLLIYKVSNRFSGVPDRFSGSGSGTDFTLKISRVEAEDVGVYYCGQGTQVPYTFGQGTKLEIK	2.81
CE115HA000/GLS3000 N28K (antibody, IgG1, name in Kabat numbering, V domains shown, one-arm IgG1) VH: QVQLVESGGGVVQPGRSLRLSCAASGFTFSNAWMHWVRQAPGKGLEWVAQIKAKSNNYATYYAESVKGRFTISRDDSKNSLYLQMNSLKTEDTAVYYCRYVHYGAYYGVDAWGQGTTVTVSS VL: DIVMTQSPLSLPVTPGEPASISCRSSQSLVHSKRNTYLHWYQQKPGQAPRLLIYKVSNRFSGVPDRFSGSGSGTDFTLKISRVEAEDVGVYYCGQGTQVPYTFGQGTKLEIK	2.34
CE115HA000/GLS3000 N28M (antibody, IgG1, name in Kabat numbering, V domains shown, one-arm IgG1) VH: QVQLVESGGGVVQPGRSLRLSCAASGFTFSNAWMHWVRQAPGKGLEWVAQIKAKSNNYATYYAESVKGRFTISRDDSKNSLYLQMNSLKTEDTAVYYCRYVHYGAYYGVDAWGQGTTVTVSS VL: DIVMTQSPLSLPVTPGEPASISCRSSQSLVHSMRNTYLHWYQQKPGQAPRLLIYKVSNRFSGVPDRFSGSGSGTDFTLKISRVEAEDVGVYYCGQGTQVPYTFGQGTKLEIK	3.29

Further lines, results first:

KD ratio to GLS3000	Binder
3.89	CE115HA000/GLS3000 N28Y (antibody, IgG1, name in Kabat numbering, V domains shown, one-arm IgG1) VH: QVQLVESGGGVVQPGRSLRLSCAASGFTFSNAWMHWVRQAPGKGLEWVAQIKAKSNNYATYYAESVKGRFTISRDDSKNSLYLQMNSLKTEDTAVYYCRYVHYGAYYGVDAWGQGTTVTVSS VL: DIVMTQSPLSLPVTPGEPASISCRSSQSLVHSYRNTYLHWYQQKPGQAPRLLIYKVSNRFSGVPDRFSGSGSGTDFTLKISRVEAEDVGVYYCGQGTQVPYTFGQGTKLEIK
1.16	CE115HA000/GLS3000 N30A (antibody, IgG1, name in Kabat numbering, V domains shown, one-arm IgG1) VH: QVQLVESGGGVVQPGRSLRLSCAASGFTFSNAWMHWVRQAPGKGLEWVAQIKAKSNNYATYYAESVKGRFTISRDDSKNSLYLQMNSLKTEDTAVYYCRYVHYGAYYGVDAWGQGTTVTVSS VL: DIVMTQSPLSLPVTPGEPASISCRSSQSLVHSNRATYLHWYQQKPGQAPRLLIYKVSNRFSGVPDRFSGSGSGTDFTLKISRVEAEDVGVYYCGQGTQVPYTFGQGTKLEIK
3.82	CE115HA000/GLS3000 N30D (antibody, IgG1, name in Kabat numbering, V domains shown, one-arm IgG1) VH: QVQLVESGGGVVQPGRSLRLSCAASGFTFSNAWMHWVRQAPGKGLEWVAQIKAKSNNYATYYAESVKGRFTISRDDSKNSLYLQMNSLKTEDTAVYYCRYVHYGAYYGVDAWGQGTTVTVSS VL: DIVMTQSPLSLPVTPGEPASISCRSSQSLVHSNRDTYLHWYQQKPGQAPRLLIYKVSNRFSGVPDRFSGSGSGTDFTLKISRVEAEDVGVYYCGQGTQVPYTFGQGTKLEIK
3.73	CE115HA000/GLS3000 N28V (antibody, IgG1, name in Kabat numbering, V domains shown, one-arm IgG1) VH: QVQLVESGGGVVQPGRSLRLSCAASGFTFSNAWMHWVRQAPGKGLEWVAQIKAKSNNYATYYAESVKGRFTISRDDSKNSLYLQMNSLKTEDTAVYYCRYVHYGAYYGVDAWGQGTTVTVSS VL: DIVMTQSPLSLPVTPGEPASISCRSSQSLVHSVRNTYLHWYQQKPGQAPRLLIYKVSNRFSGVPDRFSGSGSGTDFTLKISRVEAEDVGVYYCGQGTQVPYTFGQGTKLEIK
3.17	CE115HA000/GLS3000 N28W (antibody, IgG1, name in Kabat numbering, V domains shown, one-arm IgG1) VH: QVQLVESGGGVVQPGRSLRLSCAASGFTFSNAWMHWVRQAPGKGLEWVAQIKAKSNNYATYYAESVKGRFTISRDDSKNSLYLQMNSLKTEDTAVYYCRYVHYGAYYGVDAWGQGTTVTVSS VL: DIVMTQSPLSLPVTPGEPASISCRSSQSLVHSWRNTYLHWYQQKPGQAPRLLIYKVSNRFSGVPDRFSGSGSGTDFTLKISRVEAEDVGVYYCGQGTQVPYTFGQGTKLEIK

From patent US20210388087A1 (Chugai, published 2021)
